One molecule from publication PMC10308451 can be followed below.

The series has as its target T1, EhDbr1 (RNA lariat debranching enzyme) (Entamoeba histolytica, UniProt C4M1P9 1-354).
T1 sequence: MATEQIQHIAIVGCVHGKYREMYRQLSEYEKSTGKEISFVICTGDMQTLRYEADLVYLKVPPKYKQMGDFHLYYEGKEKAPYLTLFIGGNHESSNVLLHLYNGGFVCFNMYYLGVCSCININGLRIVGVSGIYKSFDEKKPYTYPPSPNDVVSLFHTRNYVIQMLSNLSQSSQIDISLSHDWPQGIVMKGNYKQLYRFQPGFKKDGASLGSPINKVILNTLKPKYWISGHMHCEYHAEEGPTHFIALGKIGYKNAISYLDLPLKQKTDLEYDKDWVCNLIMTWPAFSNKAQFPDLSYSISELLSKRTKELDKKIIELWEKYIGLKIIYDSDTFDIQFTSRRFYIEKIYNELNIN
Put plainly: X-ray crystallography.

Regarding GUGUG (ssRNA, 5'-terminal phosphorothioate) [PS-bRNA-1 5' product (hydrolyzed 2'-5' fragment, 5'-PS-GUGUG-3')], the binding result is “binds”.
